Molecular target: high molecular weight glycoprotein gp240 on melanoma cells (human) (UniProt Q6UVK1)
Assay: cell-based or functional assay

UniProt Q6UVK1, sequence (Q6UVK1 30-2322): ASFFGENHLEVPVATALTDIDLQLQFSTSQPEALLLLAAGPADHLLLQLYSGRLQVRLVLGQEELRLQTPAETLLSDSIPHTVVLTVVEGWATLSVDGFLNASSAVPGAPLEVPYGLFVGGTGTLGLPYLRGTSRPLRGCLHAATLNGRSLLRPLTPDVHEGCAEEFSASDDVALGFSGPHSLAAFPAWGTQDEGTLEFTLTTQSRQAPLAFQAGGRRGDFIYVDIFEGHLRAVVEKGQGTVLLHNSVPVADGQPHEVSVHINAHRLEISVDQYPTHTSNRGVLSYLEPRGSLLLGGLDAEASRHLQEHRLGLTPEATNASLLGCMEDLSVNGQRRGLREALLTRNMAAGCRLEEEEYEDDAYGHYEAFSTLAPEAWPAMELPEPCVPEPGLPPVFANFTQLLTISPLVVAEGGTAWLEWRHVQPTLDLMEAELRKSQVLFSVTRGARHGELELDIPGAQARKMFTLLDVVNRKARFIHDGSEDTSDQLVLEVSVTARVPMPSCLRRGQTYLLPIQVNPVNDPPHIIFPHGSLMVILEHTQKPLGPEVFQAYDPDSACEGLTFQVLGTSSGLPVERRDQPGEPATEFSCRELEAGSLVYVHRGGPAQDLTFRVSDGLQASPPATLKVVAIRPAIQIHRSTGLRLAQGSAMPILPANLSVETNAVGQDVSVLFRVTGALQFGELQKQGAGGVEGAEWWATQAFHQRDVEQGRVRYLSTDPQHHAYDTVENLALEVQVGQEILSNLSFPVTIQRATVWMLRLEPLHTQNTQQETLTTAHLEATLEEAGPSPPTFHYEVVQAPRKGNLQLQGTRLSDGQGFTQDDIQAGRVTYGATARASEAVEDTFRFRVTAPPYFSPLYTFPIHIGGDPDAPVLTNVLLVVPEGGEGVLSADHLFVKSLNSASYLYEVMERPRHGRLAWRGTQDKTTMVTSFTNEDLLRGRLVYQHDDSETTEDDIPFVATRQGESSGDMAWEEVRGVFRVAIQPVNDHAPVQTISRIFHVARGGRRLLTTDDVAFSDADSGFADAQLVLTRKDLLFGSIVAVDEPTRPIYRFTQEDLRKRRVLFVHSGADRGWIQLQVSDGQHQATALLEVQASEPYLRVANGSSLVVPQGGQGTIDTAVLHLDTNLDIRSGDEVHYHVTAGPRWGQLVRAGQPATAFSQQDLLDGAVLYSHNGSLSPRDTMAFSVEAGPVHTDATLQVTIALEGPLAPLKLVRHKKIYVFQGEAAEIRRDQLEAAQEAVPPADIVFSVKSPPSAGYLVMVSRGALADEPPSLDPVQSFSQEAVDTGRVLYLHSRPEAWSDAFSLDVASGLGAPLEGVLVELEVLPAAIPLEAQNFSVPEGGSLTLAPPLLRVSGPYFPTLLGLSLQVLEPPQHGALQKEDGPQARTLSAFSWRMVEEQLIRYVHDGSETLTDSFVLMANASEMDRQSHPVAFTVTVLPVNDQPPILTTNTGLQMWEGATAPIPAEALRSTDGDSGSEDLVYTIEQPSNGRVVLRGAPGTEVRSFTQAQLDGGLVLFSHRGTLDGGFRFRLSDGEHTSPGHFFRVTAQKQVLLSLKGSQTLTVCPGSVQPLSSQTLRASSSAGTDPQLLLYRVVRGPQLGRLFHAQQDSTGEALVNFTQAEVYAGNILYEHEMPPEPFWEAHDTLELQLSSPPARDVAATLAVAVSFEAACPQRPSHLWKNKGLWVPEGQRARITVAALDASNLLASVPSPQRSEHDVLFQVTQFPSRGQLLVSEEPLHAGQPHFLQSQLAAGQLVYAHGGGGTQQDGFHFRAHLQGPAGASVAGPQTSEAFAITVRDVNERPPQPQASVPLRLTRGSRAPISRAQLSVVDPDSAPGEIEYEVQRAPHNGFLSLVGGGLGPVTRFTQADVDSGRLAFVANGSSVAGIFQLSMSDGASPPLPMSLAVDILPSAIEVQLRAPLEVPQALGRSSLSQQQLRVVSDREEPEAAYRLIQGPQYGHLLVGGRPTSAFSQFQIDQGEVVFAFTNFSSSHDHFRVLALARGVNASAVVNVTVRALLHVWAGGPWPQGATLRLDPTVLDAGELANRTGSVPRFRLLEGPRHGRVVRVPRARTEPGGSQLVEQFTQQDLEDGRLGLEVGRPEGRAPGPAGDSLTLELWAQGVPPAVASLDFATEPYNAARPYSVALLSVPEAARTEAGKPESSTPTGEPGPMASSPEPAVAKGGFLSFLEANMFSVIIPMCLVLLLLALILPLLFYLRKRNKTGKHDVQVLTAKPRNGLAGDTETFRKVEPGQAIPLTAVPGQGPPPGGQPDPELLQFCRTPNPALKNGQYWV

| Substance | IC50, 72 h in vitro cytotoxicity on antigen-positive A375 human melanoma cells [nM] |
| --- | --- |
| IgG ZME-018-gelonin chemical conjugate | 8 |
| scfvMEL/rGel fusion construct | 8 |

— patent US20030176331A1
